Assay: yeast display, Sf9 membrane polyspecificity reagent, FACS + sequencing; frameworks hold sequencing errors
Method in brief: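 Nanobodies from a synthetic yeast display library (Saccharomyces cerevisiae BJ5465), induced 36–48 hours with galactose, were stained 1 hour at 4 °C with 10% biotinylated, detergent-solubilized Sf9 membrane reagent, enriched on streptavidin microbeads, then FACS-sorted. Anti-HA (expression) and streptavidin (reagent binding) fluorescence set low and high (top ~1%) gates. Polyreactivity labels come from the gate of origin. Genes were colony-PCR amplified, MiSeq 2 × 250 sequenced and filtered by CDR length.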

| Sequence | polyreactivity (PSR sort gate) |
| --- | --- |
| QVQLVESGGGLVQAGGSLRLSCAASGRTFHYYAMGWYRQAPGKERELVAAINFSGDNTYYADSVKGRFTISRDNAKNTVYLQLNSLKPEDTAVYYCAARREYARYKGYYYWGQGTQVTVSS | low polyreactivity |
| QVQLVESGGGLVQAGGSLRLSCAASGRTFHYYAMVWYRQAPWKERELVAGITAGGSTYYADSVKGRFTISRDNAKNTVYLLMNSLKPEDNSGYYCAADRSYYGYGYWGKGTQVTVSS | low polyreactivity |
| QVQLVESGGGLVQAGGSLRLSCAASGRTFIFYAMGWYRQAPGKERELVAAISSSGSGTYYADSVKGRFTISRDNAKNTVYFQMNSLKPEDTAVYYCAADVVNSRRRPKYGYWGQGTQVTVSS | low polyreactivity |
| QVQLVESGGGLVQAGGSLRLSCAASGRTFIFYAMGWYRQAPGKERELVAAITYSGTSTYYADSVKGRFTISRDNAKNTVYLQMNSLKPEDTAVYYCASRPTPYRDDADEYWGQGTQVTVSS | low polyreactivity |
| QVQLVESGGGLVQAGGSLRLSCAASGRTFIGNAMGWYRQAPGKERELVAGIDSDGSTNYADSVKGRFTISRDNAKNTVYLLMNSLKPEDTAVYYCAAVQGYRFYEYYYWGQGTQVTVSW | low polyreactivity |
| QVQLVESGGGLVQAGGSLRLSCAASGRTFIGNAMGWYRQAPGKERELVAGISYRGGSTYYADSVKGRFTISRDNAKNTVYLQMNSLKPEDTAVYYCAAPGRGGYYYWGQGTQVTVSS | high polyreactivity |
| QVQLVESGGGLVQAGGSLRLSCAASGRTFIGYAMGWYIQAPGKERELVAAISPGGSTKYADSVKGRFTISRDNAKNTVYLQMNILKPEDTAVYYCNAYSQSWNFYGDGDYWGQGTQVTVSS | low polyreactivity |
| QVQLVESGGGLVQAGGSLRLSCAASGRTFIGYAMGWYRPAPGKERELVAGISWSGGSTYYADSVKGRFTISRDNAKNPVSLQMNSLKPEDTAVYYCAARGRWSTEYGYWGQGTQVTVSS | low polyreactivity |
| QVQLVESGGGLVQAGGSLRLSCAASGRTFIHYAMGWSRQAPGKERELVAAISRRGGSTYYADSVKGRFTISRDNAKNTVYLQMNSLKPEDTAVYYCAARLLGITGRTDSGAEGDYWGQGTQVTVSS | high polyreactivity |
| QVQLVESGGGLVQAGGSLRLSCAASGRTFIINTMGWSRQATGTERELVAAISKNGATTNYADSVKGRFTISRDNAKNTVYLQMNSLKPEDTAVYYCNARYSGYLRLDYWGQGTQVTVSS | low polyreactivity |
| QVQLVESGGGLVQAGGSLRLSCAASGRTFIINTMGWYRQAPGKERELVAAISKNGATTNYADSVKGRFTISRDNAKNTVYLQMNSLKPEDTAVYYCAKKASYWWGYEYWGQGTQVTVSS | low polyreactivity |
| QVQLVESGGGLVQAGGSLRLSCAASGRTFIPYAMAWYRQAPGKEMELVAAISTTAGTTYYADSVKGRFTISRDNAKNTVYLQMNSLKPEDTAVYYCAAEGYGSFFVAMDYWGQGTQVTVSS | high polyreactivity |
| QVQLVESGGGLVQAGGSLRLSCAASGRTFIRYTMGWYRPAPGKERELVAAITSTGRTYYADSVKGRFTISRDNAKNTVYLQMNSLKPEDTAVYYCAAKQSWEGYDYWGQGTQVTVSS | low polyreactivity |
| QVQLVESGGGLVQAGGSLRLSCAASGRTFISNAMGWYRQAPGKERELVATINSGGSTNYADSVKGRFTISRDNAKNTVYLQMNSLKPEDTAVYYCARRVRYKHYDYWGQGTQVTVSS | high polyreactivity |
| QVQLVESGGGLVQAGGSLRLSCAASGRTFISNAMGWYRQAPVKERELVAAISRSGGSTYYADSVKGRFTISRDNAKNTVYLQMNSLKPEDTAVYYCAATGKQWRTSYDYWGQGTQVTVSS | high polyreactivity |
| QVQLVESGGGLVQAGGSLRLSCAASGRTFISYAMGWYRQAPGKERELVAAISWSGGRTSYADSVKGRFTISRDNAKNTVYLHMNSLKPEDTAVYYCNAQYNSWFAIKDYDYWGQGTQVTVSS | low polyreactivity |
| QVQLVESGGGLVQAGGSLRLSCAASGRTFISYAMGWYRQAPGKESELVAAISSSGGSTYYADSVKGRFTISRDNAKNTVYLQMNSLKPEDTEVYYCNAAKVRRDPAWRLLDYWGQGTQVTVSS | low polyreactivity |
| QVQLVESGGGLVQAGGSLRLSCAASGRTFITYAMGWYRQAPGKERELVAAISSGGGRTYYADSVKGRFTISRDNAKNTVYLQMNSLKPEDTAVYYCAALYVYPLTYKPSRYPYDYWGQGTQVTVSS | high polyreactivity |
| QVQLVESGGGLVQAGGSLRLSCAASGRTFIVNAMAWYRQAPGKERELVAAISSGGSTNYADSVKGRFTISRDNAKNTVYLQMNSLKPEDTAVYYCASRLRGPRSYWSWYGYWGQGTQVTVSS | high polyreactivity |
| QVQLVESGGGLVQAGGSLRLSCAASGRTFIVNAMGWYRQAPGKVRELVAAITKGARTYYADSVKGRFTISRDNAKNTVYLQRNSLKPEDTAVYYCNATRLGGNGTRHYYWGQGTQVTVSS | high polyreactivity |
| QVQLVESGGGLVQAGGSLRLSCAASGRTFIVYAMGWYRQAPGTERELVAGITRGSTTYADSVKGRFTISRDNATNTVYLQMNSLKPEDTAVYYCAARSSRRGPISEGDYWGQGTHVTVSS | high polyreactivity |
| QVQLVESGGGLVQAGGSLRLSCAASGRTFKFYAMGWYRQAPGKERELVATITSGGSTYYADSVKGRFTISRDNAKNTVYLQMNSLIPEDTAVSYCNAAKTYPDVYEYDYWGQGTQVTVSS | high polyreactivity |
| QVQLVESGGGLVQAGGSLRLSCAASGRTFKGYTMGWYRQAPGKERELVAAITRSGGGTYYADSVKGRFTISRDNAKNTVYLQMNSLKPEDTAVYYCAARRPGYYYPSKFDYWGQGTQVTVSS | high polyreactivity |
| QVQLVESGGGLVQAGGSLRLSCAASGRTFKGYTMGWYRQAPGKERELVAVITWSGDRTYYADSVKGRFTISRDNAKNTVYLQMNSLKPEDTAVYYCAARGYSLRTRGDYWGQGTQVTVSS | high polyreactivity |
| QVQLVESGGGLVQAGGSLRLSCAASGRTFKIYAMGWYRQAPGKERELVAAITWNGDSTHYADSVKGRFTISRDNAKNTVYLQMNSLKPEDTAVYYCNRVGYQSMNYWGQGTQVTVSS | low polyreactivity |
| QVQLVESGGGLVQAGGSLRLSCAASGRTFKKNAMGWYRQAPGKERELVAAITGSGGSTYYADSVKGRFTISRDNAKKTVYLQMNSLKPEDTAVYYCAAYAYGVWHSQDCGNYWGQGTQVTVSS | low polyreactivity |
| QVQLVESGGGLVQAGGSLRLSCAASGRTFKKYAMGWYRPAPRKERELVAAITGSGGSTYYADSVKGRFTISRDNAKNTVYLQMNSLKPEDTAVYYCAAYAYGVWHSQDGGNYWGQGTQVTVSS | low polyreactivity |
| QVQLVESGGGLVQAGGSLRLSCAASGRTFKLNAMGWYRKAPGKERELVAGITRTGDSTYYADSVKGRFTISRDNAKNTVYLQMNSLKPEDTAVYYCAAAEWYSMDYWGQGTQVTVSS | low polyreactivity |
| QVQLVESGGGLVQAGGSLRLSCAASGRTFKLNAMGWYRQAPGKERELVAAISRNGGSTYYADSVKGRFTISRDNAKNTVYLQMNSLKPEDTAVYYCAAVRHGVSLAGYYWGQGTQVTVSS | high polyreactivity |
| QVQLVESGGGLVQAGGSLRLSCAASGRTFKLYGMGWYRQAPVKEREFVAAITQGGGSTFYADSVKGRFTISRDNSKNTVYLQMNSLKPEDTAVYYCAARTQIFSRYRGFYSWGQGTQVTVSS | high polyreactivity |

— the nanobody polyreactivity screen of Harvey et al. (2022)
